Data on three molecules can be found in patent US20200157212A1 (Pfizer, published 2020).

Sequences and labels used below:
B1: 93H2 (antibody, human IgG1, kappa, V domains shown)
VH: EVQLVQSGAEVKKPGASVKVSCKASGYTFTGYYMHWVRQAPGQGLEWMGWINPNSGATNFPQKFQGRVTMTRDTSITTAYMDLSRLRSDDTAVYYCARESGDDAFDIWGQGTMVTVSS
VL: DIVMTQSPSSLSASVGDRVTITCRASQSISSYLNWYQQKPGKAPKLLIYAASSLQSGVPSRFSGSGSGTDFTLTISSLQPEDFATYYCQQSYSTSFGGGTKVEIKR
notes: also called parental 93H2; 93H2 mAb
B2: Abcs35 (antibody, human IgG1, kappa)
heavy: EVQLVQSGAEVKKPGASVKVSCKASGYTFTGYYMHWVRQAPGQGLEWMGWINPKNGDTEFPQKFQGRVTMTRDTSITTAYMDLSRLRSDDTAVYYCARESGDDAFDIWGQGTMVTVSSASTKGPSVFPLAPSSKSTSGGTAALGCLVKDYFPEPVTVSWNSGALTSGVHTFPAVLQSSGLYSLSSVVTVPSSSLGTQTYICNVNHKPSNTKVDKKVEPKSCDKTHTCPPCPAPEAAGAPSVFLFPPKPKDTLMISRTPEVTCVVVDVSHEDPEVKFNWYVDGVEVHNAKTKPREEQYNSTYRVVSVLTVLHQDWLNGKEYKCKVSNKALPAPIEKTISKAKGQPREPQVYTLPPSREEMTKNQVSLTCLVKGFYPSDIAVEWESNGQPENNYKTTPPVLDSDGSFFLYSKLTVDKSRWQQGNVFSCSVMHEALHNHYTQKSLSLSPGK
light: DIVMTQSPSSLSASVGDRVTITCRASQSISSYLNWYQQKPGKAPKLLIYAASSLQSGVPSRFSGSGSGTDFTLTISSLQPEDFATYYCQQSVGLFFGGGTKVEIKRTVAAPSVFIFPPSDEQLKSGTASVVCLLNNFYPREAKVQWKVDNALQSGNSQESVTEQDSKDSTYSLSSTLTLSKADYEKHKVYACEVTHQGLSSPVTKSFNRGEC
notes: fully human IgG1; VH of Ab96 with VL of Ab123
B3: Abcs25 (antibody, human IgG1, kappa, V domains shown)
VH: EVQLVQSGAEVKKPGASVKVSCKASGYTFTGYYMHWVRQAPGQGLEWMGWINPKDGDTEFPQKFQGRVTMTRDTSITTAYMDLSRLRSDDTAVYYCARESGDDAFDIWGQGTMVTVSS
VL: DIVMTQSPSSLSASVGDRVTITCRASQSISSYLNWYQQKPGKAPKLLIYAASSLQSGVPSRFSGSGSGTDFTLTISSLQPEDFATYYCQQSVGLSFGGGTKVEIKR
notes: chain-shuffled IgG

This experiment deals with T1, Cynomolgus monkey ROBO2 overexpressed on HEK293 cells (cynomolgus monkey, UniProt Q9HCK4 22-1378 (human entry)).
T1 chain: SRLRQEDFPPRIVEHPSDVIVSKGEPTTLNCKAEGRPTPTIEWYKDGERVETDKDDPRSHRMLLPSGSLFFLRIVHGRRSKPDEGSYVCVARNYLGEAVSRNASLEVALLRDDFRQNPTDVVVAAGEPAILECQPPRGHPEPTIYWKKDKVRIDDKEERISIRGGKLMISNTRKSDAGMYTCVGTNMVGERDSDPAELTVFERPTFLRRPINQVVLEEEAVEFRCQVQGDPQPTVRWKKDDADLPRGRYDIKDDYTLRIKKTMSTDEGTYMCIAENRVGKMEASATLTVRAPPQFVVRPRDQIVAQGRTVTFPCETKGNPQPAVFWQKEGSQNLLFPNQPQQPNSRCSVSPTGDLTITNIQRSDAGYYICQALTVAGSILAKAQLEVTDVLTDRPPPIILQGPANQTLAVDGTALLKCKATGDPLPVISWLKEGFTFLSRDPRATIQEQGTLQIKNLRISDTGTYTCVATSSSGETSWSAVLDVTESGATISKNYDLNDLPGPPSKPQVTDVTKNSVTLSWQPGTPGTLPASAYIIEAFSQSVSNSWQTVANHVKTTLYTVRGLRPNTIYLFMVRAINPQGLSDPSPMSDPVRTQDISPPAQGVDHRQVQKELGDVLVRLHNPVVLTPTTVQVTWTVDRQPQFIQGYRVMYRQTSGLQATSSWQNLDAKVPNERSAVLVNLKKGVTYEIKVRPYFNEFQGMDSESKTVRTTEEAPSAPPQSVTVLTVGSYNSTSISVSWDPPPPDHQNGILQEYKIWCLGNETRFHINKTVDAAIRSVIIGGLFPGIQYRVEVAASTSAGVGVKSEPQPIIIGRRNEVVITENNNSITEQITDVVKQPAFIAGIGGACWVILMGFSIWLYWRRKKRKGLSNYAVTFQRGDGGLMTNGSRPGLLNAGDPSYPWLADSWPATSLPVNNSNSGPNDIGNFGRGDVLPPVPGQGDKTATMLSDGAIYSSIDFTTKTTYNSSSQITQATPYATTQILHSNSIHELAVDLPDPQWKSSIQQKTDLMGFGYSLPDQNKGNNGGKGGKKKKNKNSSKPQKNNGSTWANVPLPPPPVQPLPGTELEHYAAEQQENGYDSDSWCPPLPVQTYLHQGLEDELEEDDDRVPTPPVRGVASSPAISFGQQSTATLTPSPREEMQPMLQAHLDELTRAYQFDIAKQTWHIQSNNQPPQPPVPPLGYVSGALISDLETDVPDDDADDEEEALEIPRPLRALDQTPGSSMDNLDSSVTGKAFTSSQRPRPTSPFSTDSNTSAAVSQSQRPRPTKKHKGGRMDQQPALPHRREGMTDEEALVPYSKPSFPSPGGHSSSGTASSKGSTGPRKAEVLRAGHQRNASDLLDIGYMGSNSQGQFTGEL
Briefly: flow cytometry, HEK293 cells, average of n = 3. As for the experimental part:
Binding of the antibodies was detected using a secondary fluorochrome conjugated anti-human IgG F(ab′)₂ antibody and samples were analyzed on a Fortessa cytometer (BD Biosciences). The fold ROBO2 selectivity was calculated as the geometric mean fluorescence intensity (Geo MFI) with ROBO2 cells/Geo MFI with ROBO1 cells. A fold change higher than 3 was considered to be ROBO2 specific (Table 2, Fold Selectivity). Some affinity matured clones had increased ROBO1 reactivity, for example Abcs 55, CTI-R2-10 and CTIR2-13.
Based upon several criteria, Abcs25 and Abcs35 were selected for further characterization. Using flow cytometry, improvement in the binding EC₅₀ to human ROBO2 relative to the parental 93H2 was evaluated. Starting at 6.7 nM, 11-point, 3-fold dilution series were made for each antibody and used to stain HEK293 overexpressing human ROBO2 as described above for the ROBO2 fold selectivity (Example 2). […] In addition to measuring improved binding to human ROBO2, it was important to ensure that high affinity binding to both cynomolgus monkey ROBO2 and rat ROBO2 was maintained. Using HEK293 cells overexpressing either cynomolgus monkey ROBO2 or rat ROBO2, the relative dose-dependent binding of 93H2, Abcs25 and Abcs35 was evaluated as described above. High affinity binding to both cynomolgus monkey and rat ROBO2 was maintained in Abcs25 and Abcs35 (Table 4). […] Briefly, Abcs35 was immobilized to 300 resonance units (RU) on a CM5 chip. Association of ROBO2 Ig1-Ig2-His (ROBO2) was measured over 5 minutes and dissociation was followed for a period of 10 minutes.
(In flow cytometry, cells or beads pass a laser one at a time.)
B1 yielded a half-maximal effective concentration (EC50) of 0.316 nM.

B2 returned an EC50 of 0.145 nM.

In turn, B3 displayed an EC50 of 0.128 nM.

Broadly, the EC50 is the concentration at which the effect is half-maximal.
